Assay results reported in article doi:10.1101/2025.09.11.675682, “Weak SLP-76-PLC-γ1 interaction in the LAT-nucleated multi-protein complex fine-tunes TCR signal strength to optimize T cell responsiveness” (bioRxiv, 2025).

T1: PLC-γ1 (Phospholipase C-γ1), 1–1219 (UniProt P19174 1-1219)
T1 sequence (looked up): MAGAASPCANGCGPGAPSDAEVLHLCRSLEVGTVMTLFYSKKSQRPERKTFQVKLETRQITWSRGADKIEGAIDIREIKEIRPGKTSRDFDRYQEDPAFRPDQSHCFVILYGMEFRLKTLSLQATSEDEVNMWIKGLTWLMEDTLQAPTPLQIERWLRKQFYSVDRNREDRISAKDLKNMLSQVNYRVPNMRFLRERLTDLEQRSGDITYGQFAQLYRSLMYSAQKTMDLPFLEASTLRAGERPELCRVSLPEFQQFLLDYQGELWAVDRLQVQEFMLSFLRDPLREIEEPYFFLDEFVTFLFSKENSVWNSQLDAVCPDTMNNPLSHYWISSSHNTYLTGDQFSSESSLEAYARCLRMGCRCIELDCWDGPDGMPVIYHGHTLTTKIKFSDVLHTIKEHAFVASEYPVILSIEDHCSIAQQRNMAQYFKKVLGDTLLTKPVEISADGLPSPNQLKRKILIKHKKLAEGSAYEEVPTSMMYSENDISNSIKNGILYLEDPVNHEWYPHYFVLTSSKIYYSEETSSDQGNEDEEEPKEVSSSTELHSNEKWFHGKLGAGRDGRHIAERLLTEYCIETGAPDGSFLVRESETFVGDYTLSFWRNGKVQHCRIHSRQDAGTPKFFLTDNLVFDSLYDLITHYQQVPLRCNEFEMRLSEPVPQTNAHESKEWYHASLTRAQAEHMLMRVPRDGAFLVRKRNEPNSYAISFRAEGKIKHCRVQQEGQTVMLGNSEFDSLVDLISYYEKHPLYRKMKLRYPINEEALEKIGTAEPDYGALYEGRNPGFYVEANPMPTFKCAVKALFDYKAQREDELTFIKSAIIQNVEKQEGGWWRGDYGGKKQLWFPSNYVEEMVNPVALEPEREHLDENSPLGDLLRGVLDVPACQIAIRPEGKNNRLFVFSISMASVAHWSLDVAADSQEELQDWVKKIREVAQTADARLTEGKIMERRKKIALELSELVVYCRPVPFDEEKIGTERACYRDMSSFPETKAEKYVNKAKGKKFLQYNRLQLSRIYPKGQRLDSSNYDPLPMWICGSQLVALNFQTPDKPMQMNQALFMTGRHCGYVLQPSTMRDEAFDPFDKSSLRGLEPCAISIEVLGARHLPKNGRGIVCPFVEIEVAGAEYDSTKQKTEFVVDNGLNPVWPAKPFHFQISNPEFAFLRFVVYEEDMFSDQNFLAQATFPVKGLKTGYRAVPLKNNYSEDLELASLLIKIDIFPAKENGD


What was measured:
[1] = target: T1, PLC-γ1 (Phospholipase C-γ1), 1–1219; test: cell-based or functional assay
[2] = target: T1, PLC-γ1 (Phospholipase C-γ1), 1–1219; test: ITC; VP-ITC; 5°C; 20 mM Hepes (pH 7.4), 100 mM NaCl, 0.1 mM DTT; 4 μM in the cell, 40 μM in the syringe; single binding site fit with 1:1 stoichiometry; 3 independent experiments; details: both partners purified

Row | Binder | PLC-γ1 activity (IP3 from PIP2-bearing liposomes): LAT-Gads-SLP-76^WT-PLC-γ1 tetramer against PLC-γ1 with phospho-LAT alone [1] [fold] | Kd [2] [µM] | dH [2] [kcal/mol]
1 | SLP-76^WT polypeptide (aa 103–258, Y113F, Y173F) (domain or fragment, UniProt Q13094 103-258, looked up, wild-type proline-rich region; not shown: His6, N-terminal, cleaved; GST, N-terminal, cleaved) GGWSSFEEDDFESPNDDQDGEDDGDYESPNEEEEAPVEDDADYEPPPSNDEEALQNSILPAKPFPNSNSMFIDRPPSGKTPQQPPVPPQRPMAALPPPPAGRNHSPLPPPQTNHEEPSRSRNHKTAKLPAPSIDRSTKPPLDRSLAPFDREPFTLG | 1.7 | 2.32 | -3.8
2 | QPPVPPQRPMAALPPP (peptide, UniProt Q13094 185-200, looked up, SLP-76 proline-rich region, residues 185–200; also called SLP-76 185–200 (WT); SLP-76 PRR_(185–200) peptide) [SLP-76 PRR peptide (aa 185–200), wild type] | – | 3.99 | -3.3
